According to paper PMC12416549 (2024):
Residue numbers refer to the chain shown, from its start. Names and notes keep the numbering of the source.

T1: TNFR1 (Homo sapiens, UniProt P19438)
T1 chain: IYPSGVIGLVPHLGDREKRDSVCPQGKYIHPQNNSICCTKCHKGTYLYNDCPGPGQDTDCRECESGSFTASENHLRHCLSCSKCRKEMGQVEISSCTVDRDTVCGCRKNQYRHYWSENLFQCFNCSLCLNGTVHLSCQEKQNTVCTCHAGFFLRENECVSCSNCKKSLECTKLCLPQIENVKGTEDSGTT

B1: E33T (designed binder)
chain: MTLQELLREEALRRAEAEAFRYALELLAEKFPTQKEYLLDLAEEIESQIRSLSGVDVEDVRKFLDKEWAWVKELLAEHPAELAEVEAARAARLAELRAEVEAKVAA
B2: L82A (designed binder)
chain: B1 chain with T33E, L82A
B3: A90P (designed binder)
chain: B1 chain with T33E, A90P
B4: E73N (designed binder)
chain: B1 chain with T33E, E73N
B5: L75N (designed binder)
chain: B1 chain with T33E, L75N
B6: Q4L (designed binder)
chain: B1 chain with Q4L, T33E
B7: I49F (designed binder)
chain: B1 chain with T33E, I49F
B8: E36H (designed binder)
chain: B1 chain with T33E, E36H
B9: A69Q (designed binder)
chain: B1 chain with T33E, A69Q
B10: R8M (designed binder)
chain: B1 chain with R8M, T33E
B11: L27W (designed binder)
chain: B1 chain with L27W, T33E
B12: A15L (designed binder)
chain: B1 chain with A15L, T33E
B13: Q4P (designed binder)
chain: B1 chain with Q4P, T33E
B14: L38I (designed binder)
chain: B1 chain with T33E, L38I
B15: L27A (designed binder)
chain: B1 chain with L27A, T33E
B16: S47V (designed binder)
chain: B1 chain with T33E, S47V
B17: V55G (designed binder)
chain: B1 chain with T33E, V55G
B18: M1S (designed binder)
chain: B1 chain with M1S, T33E
B19: K30N (designed binder)
chain: B1 chain with K30N, T33E
B20: R97Y (designed binder)
chain: B1 chain with T33E, R97Y
B21: S53L (designed binder)
chain: B1 chain with T33E, S53L
B22: E36W (designed binder)
chain: B1 chain with T33E, E36W
B23: R97Q (designed binder)
chain: B1 chain with T33E, R97Q
B24: R89H (designed binder)
chain: B1 chain with T33E, R89H
B25: E73V (designed binder)
chain: B1 chain with T33E, E73V
B26: E29G (designed binder)
chain: B1 chain with E29G, T33E
B27: A98S (designed binder)
chain: B1 chain with T33E, A98S
B28: E67Q (designed binder)
chain: B1 chain with T33E, E67Q
B29: I49K (designed binder)
chain: B1 chain with T33E, I49K
B30: A80P (designed binder)
chain: B1 chain with T33E, A80P
B31: E43R (designed binder)
chain: B1 chain with T33E, E43R
B32: L82W (designed binder)
chain: B1 chain with T33E, L82W
B33: A69T (designed binder)
chain: B1 chain with T33E, A69T
B34: Y37P (designed binder)
chain: B1 chain with T33E, Y37P
B35: A23P (designed binder)
chain: B1 chain with A23P, T33E
B36: E43G (designed binder)
chain: B1 chain with T33E, E43G
B37: L38V (designed binder)
chain: B1 chain with T33E, L38V
B38: K62I (designed binder)
chain: B1 chain with T33E, K62I
B39: L64H (designed binder)
chain: B1 chain with T33E, L64H
B40: F31D (designed binder)
chain: B1 chain with F31D, T33E
B41: S53F (designed binder)
chain: B1 chain with T33E, S53F
B42: V100S (designed binder)
chain: B1 chain with T33E, V100S
B43: M1Y (designed binder)
chain: B1 chain with M1Y, T33E
B44: E29W (designed binder)
chain: B1 chain with E29W, T33E
B45: E25D (designed binder)
chain: B1 chain with E25D, T33E
B46: E16Q (designed binder)
chain: B1 chain with E16Q, T33E
B47: S47H (designed binder)
chain: B1 chain with T33E, S47H
B48: A88N (designed binder)
chain: B1 chain with T33E, A88N
B49: S47P (designed binder)
chain: B1 chain with T33E, S47P
B50: K103D (designed binder)
chain: B1 chain with T33E, K103D
B51: I49M (designed binder)
chain: B1 chain with T33E, I49M
B52: E73Y (designed binder)
chain: B1 chain with T33E, E73Y
B53: K72M (designed binder)
chain: B1 chain with T33E, K72M
B54: E81F (designed binder)
chain: B1 chain with T33E, E81F
B55: K72G (designed binder)
chain: B1 chain with T33E, K72G
B56: Y37E (designed binder)
chain: B1 chain with T33E, Y37E
B57: I49N (designed binder)
chain: B1 chain with T33E, I49N
B58: E44K (designed binder)
chain: B1 chain with T33E, E44K
B59: D65V (designed binder)
chain: B1 chain with T33E, D65V

Target: T1, TNFR1
Test: yeast display SC50

Row | apparent Kd (screen) | Binder
1 | 0.405 nM | B1
2 | 0.869 nM | B2
3 | 1.4 nM | B3
4 | 1.86 nM | B4
5 | 0.593 nM | B5
6 | 0.446 nM | B6
7 | 0.539 nM | B7
8 | 0.49 nM | B8
9 | 0.653 nM | B9
10 | 0.49 nM | B10
11 | 0.956 nM | B11
12 | 0.368 nM | B12
13 | 3.3 nM | B13
14 | 0.405 nM | B14
15 | 0.593 nM | B15
16 | 0.446 nM | B16
17 | 0.539 nM | B17
18 | 0.539 nM | B18
19 | 0.539 nM | B19
20 | 0.49 nM | B20

Row | apparent Kd (screen) | Binder
21 | 2.25 nM | B21
22 | 0.539 nM | B22
23 | 0.653 nM | B23
24 | 0.539 nM | B24
25 | 1.05 nM | B25
26 | 0.49 nM | B26
27 | 0.653 nM | B27
28 | 11.4 nM | B28
29 | 7.78 nM | B29
30 | 0.446 nM | B30
31 | 0.593 nM | B31
32 | 0.956 nM | B32
33 | 0.718 nM | B33
34 | 18.3 nM | B34
35 | 0.718 nM | B35
36 | 0.79 nM | B36
37 | 0.172 nM | B37
38 | 0.49 nM | B38
39 | 0.956 nM | B39
40 | 2.25 nM | B40

Row | apparent Kd (screen) | Binder
41 | 0.956 nM | B41
42 | 0.49 nM | B42
43 | 0.593 nM | B43
44 | 0.653 nM | B44
45 | 1.27 nM | B45
46 | 0.653 nM | B46
47 | 0.539 nM | B47
48 | 0.718 nM | B48
49 | 3.3 nM | B49
50 | 0.718 nM | B50
51 | 0.869 nM | B51
52 | 0.539 nM | B52
53 | 0.49 nM | B53
54 | 0.718 nM | B54
55 | 0.653 nM | B55
56 | 7.78 nM | B56
57 | 2.25 nM | B57
58 | 0.956 nM | B58
59 | 0.956 nM | B59
